# Numbering of substitutions follows the chain as printed. Ends that are not written are not given here.
# T1: FX activation peptide 12-mer LDPTENPFDLLD (human)
# T1 peptide: LDPTENPFDLLD-biotin
# T2: FX activation peptide 12-mer QATSSSGEAPDS (human)
# T2 peptide: QATSSSGEAPDS-biotin
# T3: FX activation peptide 12-mer DPTENPFDLLDF (human)
# T3 peptide: DPTENPFDLLDF-biotin
# T4: FX activation peptide 12-mer GEAPDSITWKPY (human)
# T4 peptide: GEAPDSITWKPY-biotin
# T5: FX activation peptide 12-mer PFDLLDFNQTQP (human)
# T5 peptide: PFDLLDFNQTQP-biotin
# T6: FX activation peptide 12-mer TQPERGDNNLTR (human)
# T6 peptide: TQPERGDNNLTR-biotin
# T7: FX activation peptide 12-mer DAADLDPTENPF (human)
# T7 peptide: DAADLDPTENPF-biotin
# T8: FX activation peptide 12-mer PTENPFDLLDFN (human)
# T8 peptide: PTENPFDLLDFN-biotin
# T9: FX activation peptide 12-mer FNQTQPERGDNN (human)
# T9 peptide: FNQTQPERGDNN-biotin
# B1: Nb 501A02 (VHH)
# VHH: EVQLVESGGGLVQPGGSLRLSCAASGFTFSNYEMSWVRQAPGKGLEWVSDIGSGGGVSTYYADSVKGRFTISRDNAKNTLYLQMNSLKPEDTAMYYCARGWTYGSDGMDYWGKGTLVTVSS
# notes: monovalent control Nanobody; also called control Nanobody; not shown: C-terminal FLAG3 and HIS6 tag
# B2: Nb 730C03 (VHH)
# VHH: EVQLVESGGGVVQPGGSLRLSCVASGFTFSDYAMSWVRQAPGKGLEWVSGITSGSGRTYYADSVKGRFTISRDNSKNTVYLQMNSLRPEDTALYYCAAAILRGYRKTYDYWGQGTLVTVSS
# notes: monovalent Nanobody; also called Nb 730003; not shown: C-terminal FLAG3 and HIS6 tag
# B3: Nb 701C06 (VHH)
# VHH: EVQLVESGGGVVQPGGSLRLSCAASGRTFSTYAMGWFRQAPGKEREFVAAISRRGGRTYYADSVKGRFTISRDNSKNTVYLQMNSLRPEDTALYYCAADATARDGLLDYWGQGTLVTVSS
# notes: monovalent Nanobody; not shown: C-terminal FLAG3 and HIS6 tag
# B4: Nb 701D07 (VHH)
# VHH: EVQLVESGGGVVQPGGSLRLSCAASGGTLSRYAMGWFRQAPGKEREFVAAITRRGSRTYYADSVKGRFTISRDNSKNTVYLQMNSLRPEDTALYYCAADLAPGDYALDYWGQGTLVTVSS
# notes: as for B3
# B5: Nb 701B09 (VHH)
# VHH: B3 VHH with R53W, R54S, G56S, A102P, R103A, D104N, L106E
# notes: monovalent Nanobody; also called Nb 701609; not shown: C-terminal FLAG3 and HIS6 tag
# B6: Nb 702C12 (VHH)
# VHH: B3 VHH with A23V, T31R, R57S, Y59N, A100Y, T101S, A102S, R103G, L106Y
# notes: as for B3
# B7: Nb 729A04 (VHH)
# VHH: B2 VHH with V23A, S55G, V79L, A99V, I100R, L101T, R102L, Y104L, K106G, T107S
# notes: as for B3
# B8: Nb 729C08 (VHH)
# VHH: EVQLVESGGGVVQPGGSLRLSCAASGFTFSDYAMSWVRQAPGKGLEWVSGITGGGRTYYADSVKGRFTISRDNSKNTLYLQMNSLRPEDTALYYCAAAILTRTRRTYDYWGQGTLVTVSS
# notes: monovalent Nanobody; also called Nb 729008; not shown: C-terminal FLAG3 and HIS6 tag
# Molecular target: T1, FX activation peptide 12-mer …
# Test: peptide ELISA
# Procedure, shortened: (§1)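 Nanobodies (FLAG-tagged) or IgG antibodies, 2 μg/mL, incubated 1 h on C-terminally biotinylated peptide captured via streptavidin, washing buffer pH 8.60 containing CaCl₂ and Tween 20. Read-out: HRP-conjugated secondary antibody with TMB colour development.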
ELISA signal relative to background,binding result,Binder
0.91,no binding (tested: 2 µg/mL),B1
1.3,,B2
0.94,,B3
0.8,,B4
0.84,,B5
1.11,,B6

# Molecular target: T2, FX activation peptide 12-mer …
# Test: peptide ELISA
# Procedure, shortened: as §1
ELISA signal relative to background,binding result,Binder
0.82,no binding (tested: 2 µg/mL),B1
1.08,,B7
1.14,,B2
1.12,,B8
0.94,,B3
0.81,,B4
0.77,,B5
0.96,,B6

# Molecular target: T3, FX activation peptide 12-mer …
# Test: peptide ELISA
# Procedure, shortened: as §1
ELISA signal relative to background,binding result,Binder
0.88,no binding (tested: 2 µg/mL),B1
4.03,,B7
2.87,,B5
4.16,,B6

# Molecular target: T4, FX activation peptide 12-mer …
# Test: peptide ELISA
# Procedure, shortened: as §1
ELISA signal relative to background,binding result,Binder
0.94,no binding (tested: 2 µg/mL),B1
1.05,,B7
1.24,,B2
1.15,,B8
0.9,,B3
0.8,,B4
0.86,,B5
0.93,,B6

# Molecular target: T5, FX activation peptide 12-mer …
# Test: peptide ELISA
# Procedure, shortened: as §1
ELISA signal relative to background,binding result,Binder
0.79,no binding (tested: 2 µg/mL),B1
1.23,,B2
1.18,,B8
3.48,,B5
4.95,,B6

# Molecular target: T6, FX activation peptide 12-mer …
# Test: peptide ELISA
# Procedure, shortened: as §1
ELISA signal relative to background,binding result,Binder
0.85,no binding (tested: 2 µg/mL),B1
1.09,,B7
1.06,,B2
1.37,,B8
0.97,,B3
0.88,,B4
0.93,,B5
1.05,,B6

# Molecular target: T7, FX activation peptide 12-mer …
# Test: peptide ELISA
# Procedure, shortened: as §1
ELISA signal relative to background,binding result,Binder
0.88,no binding (tested: 2 µg/mL),B1
1.1,,B7
1.24,,B2
1.18,,B8
0.85,,B3
0.7,,B4
0.81,,B5
0.88,,B6

# Molecular target: T8, FX activation peptide 12-mer …
# Test: peptide ELISA
# Procedure, shortened: as §1
ELISA signal relative to background,binding result,Binder
0.88,no binding (tested: 2 µg/mL),B1
5.18,,B7
2.06,,B8
3.91,,B5
4.58,,B6

# Molecular target: T9, FX activation peptide 12-mer …
# Test: peptide ELISA
# Procedure, shortened: as §1
ELISA signal relative to background,binding result,Binder
0.71,no binding (tested: 2 µg/mL),B1
1.05,,B7
1.16,,B2
1.08,,B8
0.88,,B3
0.82,,B4
0.89,,B5
1,,B6

# Molecular target: T10, human plasma-derived Factor X zymogen (human, UniProt P00742 41-179; P00742 183-488)
# Test: cell-based or functional assay
# T10 sequence (P00742 41-179, chain 1 of 2): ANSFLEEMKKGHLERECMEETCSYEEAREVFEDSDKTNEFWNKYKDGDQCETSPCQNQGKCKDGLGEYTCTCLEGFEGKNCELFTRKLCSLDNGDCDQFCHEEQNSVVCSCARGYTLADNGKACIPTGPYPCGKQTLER
# T10 sequence (P00742 183-488, chain 2 of 2): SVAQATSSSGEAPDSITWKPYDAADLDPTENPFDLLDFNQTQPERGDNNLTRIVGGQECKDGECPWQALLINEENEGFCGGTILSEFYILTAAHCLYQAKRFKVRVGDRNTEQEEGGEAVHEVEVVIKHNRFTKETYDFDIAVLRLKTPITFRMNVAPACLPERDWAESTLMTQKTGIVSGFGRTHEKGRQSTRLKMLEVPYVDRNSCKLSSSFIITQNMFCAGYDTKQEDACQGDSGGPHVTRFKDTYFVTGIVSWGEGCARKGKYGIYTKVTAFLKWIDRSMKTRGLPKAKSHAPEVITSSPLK
row,Increase in FX activation (fold),Binder
1,0.8 fold,B1
2,4.1 fold,B7
3,9.2 fold,B2
4,> 32 fold,B8
5,26 fold,B3
6,17.2 fold,B4
7,83 fold,B5
8,18.9 fold,B6

# Molecular target: T10, human plasma-derived Factor X zymogen
# Test: apparent KD fitted from FXa generation assay
# Method: The ability of the monovalent anti-FX Nanobody® (Nb) to promote FIXa-mediated FX-activation was determined in the presence of a procoagulant phospholipid membrane according to the principles described by Scheiflinger et al. (2008) J Thromb Haemost, 6:315-322. A Fab of mAb 13F62 (IgG1 isotype, variable sequences identified by SEQ ID NO:6 and 7), also found to bind the activation peptide, were included for comparison. Moreover, anti-FX antibodies as disclosed in U.S. Pat. No. 9,334,331 (J327 and L404-k in said publication), corresponding to the anti-FX arm of ACE910); and more recently in WO2018/021450 (J327 D31H and JYL280 in said publication) and WO2018/098363 (BIIB-12-917 represented by SEQ ID NO:427 and 615 in said publication) are stated to be suitable for use as part of anti-FIX/anti-FX bispecific FVIII mimetic compounds were, furthermore, included for comparison.
# Each compound was tested individually in a concentration range from 0-1000 nM, 0-2000 nM, 0-4000 nM or 0-8000 nM by pre-incubation with 1-1.5 nM human plasma-derived FIXa (Haematologic Technologies Inc, USA) and 500 μM 25:75 phosphatidyl serine:phosphatidyl choline phospholipid vesicles (Haematologic Technologies Inc, USA) in assay buffer (50 mM HEPES, 100 mM NaCl, 5 mM CaCl₂, 0.1% (w/v) PEG8000, 1 mg/mL bovine serum albumin, pH 7.3) for 10 minutes. The reaction was initiated by addition of human plasma-derived FX (Haematologic Technologies Inc, USA) to a final concentration of 100 nM and a reaction volume of 50 μL. Following 20 minutes activation at room temperature while agitated (1000 RPM), the reaction was quenched by addition of 25 μL quench buffer (50 mM HEPES, 100 mM NaCl, 60 mM EDTA, 0.1% (w/v) PEG8000, 1 mg/mL bovine serum albumin, pH 7.3). The amount of FXa generated was determined by addition of 25 μL 2 mM S-2765 chromogenic substrate for FXa (Chromogenix, Sweden) and chromogenic substrate conversion was followed by measuring absorbance at 405 nm for 10 minutes in a microplate reader. The observed change in 405 nm absorbance (ΔAbs405/min) was fitted to the quadratic binding equation (eq. 1) to obtain the peak stimulatory activity and EC50.
row,Kd,Binder
1,802 nM,B1
2,83.2 nM,B7
3,63.9 nM,B2
4,~1400 nM,B8
5,41.9 nM,B3
6,66.1 nM,B4
7,72.3 nM,B5
8,75.4 nM,B6

# — patent publication US20210054097A1 (Novo Nordisk, published 2021)
